Assay [1] concerns the target T1, human FcγRIIb extracellular domain, His-tagged GST fusion (human, UniProt P31994 43-217).
T1 construct: extracellular domain; also called hFcgRIIb; CD32B; not shown: C-terminal Gly/His6/GST tag
T1 sequence (looked up): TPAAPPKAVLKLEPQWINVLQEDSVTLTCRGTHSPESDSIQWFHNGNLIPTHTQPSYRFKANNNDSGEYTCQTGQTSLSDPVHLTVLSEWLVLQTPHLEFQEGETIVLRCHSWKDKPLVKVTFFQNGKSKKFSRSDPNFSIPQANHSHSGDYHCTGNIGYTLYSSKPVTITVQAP
Briefly: ELISA, captured FcγR-GST. (An ELISA detects its analyte on a solid surface through an enzyme-linked reagent.)

In assay [2] the target is T2, mouse FcγRI extracellular domain, His-tagged GST fusion (mouse, UniProt P26151 25-297).
T2 construct: extracellular domain; also called Mouse I; mFcγRI; not shown: His tag and GST
T2 sequence (looked up): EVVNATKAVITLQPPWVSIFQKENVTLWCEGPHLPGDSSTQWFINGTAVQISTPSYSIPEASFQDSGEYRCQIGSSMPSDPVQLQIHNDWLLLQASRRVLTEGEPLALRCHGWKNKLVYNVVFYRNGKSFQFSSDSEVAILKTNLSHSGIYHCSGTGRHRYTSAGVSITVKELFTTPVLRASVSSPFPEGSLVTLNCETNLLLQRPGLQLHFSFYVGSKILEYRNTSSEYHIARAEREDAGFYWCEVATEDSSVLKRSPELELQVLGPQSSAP
Briefly: ELISA, captured FcγR-GST.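 Also: antibody variants applied as dilution series to receptor wells, with retained antibody read out via an HRP-linked goat F(ab′)2 fragment recognizing human Fab′2.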

Assay [3] concerns the target T3, mouse FcγRII extracellular domain, His-tagged GST fusion (mouse, UniProt P08101 30-210).
T3 construct: extracellular domain; also called Mouse II; not shown: His tag and GST
T3 sequence (looked up): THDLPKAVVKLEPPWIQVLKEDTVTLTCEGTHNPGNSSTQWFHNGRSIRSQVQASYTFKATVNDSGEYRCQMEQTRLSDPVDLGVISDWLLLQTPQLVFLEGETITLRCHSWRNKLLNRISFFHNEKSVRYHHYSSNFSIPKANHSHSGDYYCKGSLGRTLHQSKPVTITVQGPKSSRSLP
Briefly: ELISA, captured FcγR-GST.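 Also: antibody variants applied as dilution series to receptor wells, with retained antibody read out via an HRP-linked goat F(ab′)2 fragment recognizing human Fab′2.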

The target in assay [4] is T4, mouse FcγRIII extracellular domain, His-tagged GST fusion (mouse, UniProt P08508 31-215).
T4 construct: extracellular domain; also called Mouse III; not shown: His tag and GST
T4 sequence (looked up): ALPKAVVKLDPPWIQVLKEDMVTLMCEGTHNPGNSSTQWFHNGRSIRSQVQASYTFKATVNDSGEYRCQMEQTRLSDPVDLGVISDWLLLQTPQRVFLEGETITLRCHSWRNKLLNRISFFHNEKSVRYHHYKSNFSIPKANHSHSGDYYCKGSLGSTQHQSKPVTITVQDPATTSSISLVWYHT
Briefly: ELISA, captured FcγR-GST.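 Also: antibody variants applied as dilution series to receptor wells, with retained antibody read out via an HRP-linked goat F(ab′)2 fragment recognizing human Fab′2.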

Assay [5] addresses T5, human FcγRI extracellular domain, His-tagged GST fusion (human, UniProt P12314 16-292).
T5 construct: extracellular domain; also called hFcgRI; FcγRIA; not shown: C-terminal Gly/His6/GST tag
The assay is described as follows: ELISA, captured FcγR-GST.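 Also: antibody variants applied as dilution series to receptor wells, with retained antibody read out via an HRP-linked goat F(ab′)2 fragment recognizing human Fab′2.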

Assay [6] addresses T6, human FcγRIIa extracellular domain, His-tagged GST fusion (human, UniProt P12318 34-217).
T6 construct: extracellular domain; also called hFcgRIIa; CD32A; not shown: C-terminal Gly/His6/GST tag
T6 sequence (looked up): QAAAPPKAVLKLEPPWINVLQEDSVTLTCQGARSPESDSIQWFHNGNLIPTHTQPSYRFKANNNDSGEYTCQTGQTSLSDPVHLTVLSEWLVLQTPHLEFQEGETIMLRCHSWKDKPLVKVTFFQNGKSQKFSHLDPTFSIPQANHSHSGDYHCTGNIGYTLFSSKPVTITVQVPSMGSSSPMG
The assay is described as follows: ELISA, captured FcγR-GST.

Assay [7] deals with T5, human FcγRI extracellular domain, …. The assay is described as follows: ELISA, FcγR-His-GST captured by anti-GST.
Assay [8] concerns the target T7, human BR3 on the cell surface (BJAB cells; primary human B cells) (human, UniProt Q96RJ3 1-184).
T7 construct: whole, on cells; also called BAFF-R; cell surface BR3
Briefly: competition with 25 nM FLAG-BAFF on BJAB cells.

In assay [9] the target is T7, human BR3 on the cell surface (BJAB …). Briefly: direct binding to BJAB cells, anti-human IgG Fc-HRP.
Assay [10] deals with T1, human FcγRIIb extracellular domain, …. The assay is described as follows: ELISA, FcγR-His-GST captured by anti-GST, complexed IgG.
For assay [11], the target named is T6, human FcγRIIa extracellular domain, …. The description is as above.
Assay [12] concerns the target T8, human BR3 extracellular domain (human, UniProt Q96RJ3 1-78).
T8 construct: extracellular domain; also called BR3 ECD; Br3 ECD WT
Briefly: BIAcore, BR3 ECD on chip, IgG in solution, 1:1 Langmuir model. A general note: SPR reads the build-up and loss of mass on a sensor chip optically.

The target of assay [13] is T8, human BR3 extracellular domain. Briefly: BIAcore, IgG on chip, BR3 ECD in solution, 1:1 Langmuir model.
The target is the same in assay [14]. Briefly: BIAcore, BR3 ECD on chip, IgG in solution, bivalent analyte model.
Assay [15] deals with T9, human FcγRIII (CD16) on NK cells (human, UniProt P08637 17-254). Briefly: cell-based or functional assay.
Assay [16] addresses T9, human FcγRIII (CD16) on NK cells. Briefly: cell-based or functional assay. This is another data set of the same source.
Assay [17] deals with T1, human FcγRIIb extracellular domain, …. Briefly: Fcγ receptor ELISA; bar = fold increase in binding over Herceptin, log axis 0.1-1000.
For assay [18], the target named is T5, human FcγRI extracellular domain, …. The description is as above.

By IC50 is commonly meant the concentration at which inhibition is half-maximal. A low value points to greater potency in that assay. For orientation: EC50 means the concentration needed to bring the measured effect to its halfway point. Low values mean greater potency, high ones weaker potency. By koff is commonly meant a measure of how fast the partners let go of each other. A low value points to slow dissociation. One may read the kon as a measure of how fast the partners come together. A high value points to faster complex formation.

Changes are numbered by the printed parent chain. Names may count otherwise.

B1: Hu9.1RF IgG1 (antibody)
heavy: not shown
light: DIQMTQSPSSLSASVGDRVTITCKSSQSLLYSSNQNNYLAWYQQKPGKAPKLLIYWASTRESGVPSRFSGSGSGTDFTLTISSLQPEDFATYYCQQYYTYPYTFGQGTKVEIKRTVAAPSVFIFPPSDEQLKSGTASVVCLLNNFYPREAKVQWKVDNALQSGNSQESVTEQDSKDSTYSLSSTLTLSKADYEKHKVYACEVTHQGLSSPVTKSFNRGEC
notes: Humanized IgG1 with normal (fucosylated) glycans; also called WT; WT(9.1RF)
As for B1, the “fold improvement in binding vs Herceptin (EC50herceptin/EC50sample)” value (shortened to “fold improvement in binding vs Herceptin”) in assay [1] was 0.7 fold; in assay [2] it was 1.2 fold; in assay [3] it was 0.7 fold; in assay [4], 0.8 fold; in [5], 1 fold; in [6] it was 2.3 fold. Moreover, the “binding relative to 9.1-RF” value in [7], in [10] and in [11] was 1 in each case. Moreover, in assay [8], the IC50 worked out at 8.8 nM. This molecule registered an EC50 in assay [9] of 0.92 nM. The Kd in assay [12] is 0.03 nM; in [13], 0.25 nM; in [14] it was 0.52 nM. Besides, the koff was 5.21e-05 s⁻¹ in assay [12], 0.000253 s⁻¹ in [13] and 0.000339 s⁻¹ in assay [14]. The kon worked out at 1.99e+06 M⁻¹ s⁻¹ in [12], 995000 M⁻¹ s⁻¹ in assay [13] and 658000 M⁻¹ s⁻¹ in assay [14].

B2: afucosylated Hu9.1RF IgG1 (antibody)
heavy: not shown
light: B1 light
modifications: N-linked Fc carbohydrate lacks fucose (made in a cell line lacking fucosyltransferase; 100% afucosylated by paragraph 557)
notes: also called AF Hu9.1RF IgG1; Hu9.1RF IgG1 AF
Consider B2, for which, in assay [15], the “ADCC EC50 on BJAB cells with NK cells, improvement over 2% afucosylated Hu9.1RF IgG1” value was over 6 fold and the “ADCC percent cytotoxicity on BJAB cells with NK cells, increase over 2% afucosylated Hu9.1RF IgG1” value was over 3 fold. In [8], the IC50 was determined as 3.6 nM. In [9], this molecule displayed an EC50 of 0.49 nM. In addition, in [12], the Kd stood at 0.04 nM, the koff came to 5.41e-05 s⁻¹ and the kon stood at 1.49e+06 M⁻¹ s⁻¹. In [13], this molecule gave a Kd of 0.23 nM, a koff of 0.000199 s⁻¹ and a kon of 852000 M⁻¹ s⁻¹. Also, in assay [14], the Kd was 0.28 nM, the koff worked out at 0.000149 s⁻¹ and the association rate constant (kon) was determined as 532000 M⁻¹ s⁻¹.

B3: 9.1(10) (antibody, human IgG1, kappa)
heavy: EVQLVESGGGLVQPGGSLRLSCAASGFTVTAYYMSWVRQAPGKGLEWVGFIRDKANGYTTEYNPSVKGRFTISRDTSKNTFYLQMNSLRAEDTAVYYCAQVRRALDYWGQGTLVTVSSASTKGPSVFPLAPSSKSTSGGTAALGCLVKDYFPEPVTVSWNSGALTSGVHTFPAVLQSSGLYSLSSVVTVPSSSLGTQTYICNVNHKPSNTKVDKKVEPKSCDKTHTCPPCPAPELLGGPDVFLFPPKPKDTLMISRTPEVTCVVVDVSDEDPEVKFNWYVDGVEVHNAKTKPREEQYNATYRVVSVLTVLHQDWLNGKEYKCKVSNAALPAPEEKTISKAKGQPREPQVYTLPPSREEMTKNQVSLTCLVKGFYPSDIAVEWESNGQPENNYKTTPPVLDSDGSFFLYSKLTVDKSRWQQGNVFSCSVMHEALHNHYTQKSLSLSPG
light: B1 light
notes: Fc variant of 9.1RF, expressed in 293 cells; also called 9.1RF 239D/268D/298A/326A/332E
As to B3, the “ADCC on BJAB cells with NK cells, relative fold increase compared to 9.1RF” value (“ADCC … relative fold increase compared to 9.1RF” below) in [16] was 10 fold. For the same molecule, the binding result in assay [17] and in [18] was “binds” each time.

B4: 9.1-RF N434A (antibody, human IgG1, kappa)
heavy: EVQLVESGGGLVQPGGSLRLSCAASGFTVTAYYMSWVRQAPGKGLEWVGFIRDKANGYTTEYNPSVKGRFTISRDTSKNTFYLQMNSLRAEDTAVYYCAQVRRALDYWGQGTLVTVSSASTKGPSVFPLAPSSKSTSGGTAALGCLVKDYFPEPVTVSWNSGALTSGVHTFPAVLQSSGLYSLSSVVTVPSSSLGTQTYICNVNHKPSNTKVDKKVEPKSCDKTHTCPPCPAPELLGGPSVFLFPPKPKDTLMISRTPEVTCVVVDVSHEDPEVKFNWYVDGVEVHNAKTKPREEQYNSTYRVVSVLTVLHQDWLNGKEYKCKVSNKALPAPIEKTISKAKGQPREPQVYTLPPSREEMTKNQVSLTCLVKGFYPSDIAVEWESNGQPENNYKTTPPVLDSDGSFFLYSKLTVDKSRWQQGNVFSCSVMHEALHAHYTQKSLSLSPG
light: B1 light
notes: also called 9.1RF-IgG (N434X), X = A
In the case of B4, the “binding relative to 9.1-RF” value in assay [7] turned out to be 0.97; in [10], 0.45; in assay [11], 0.66.

B5: 9.1(6) (antibody, human IgG1, kappa)
heavy: B3 heavy with D240S, D269H, A327K, E333I, E334A, K335A
light: B1 light
notes: Fc variant of 9.1RF, expressed in CHO; also called 9.1RF S298A/E333A/K334A
For B5, in assay [15], the “ADCC on BJAB cells with NK cells, relative EC50 values against 9.1RF” value was found to be 2.8 fold. Moreover, in assay [16], the “ADCC … relative fold increase compared to 9.1RF” value came out at 3 fold. The “fold improvement in binding vs Herceptin” value in assay [1] was 0.4 fold; in [2] it was 2.5 fold; in assay [3] it was 0.4 fold; in [4], 0.6 fold; in [5], 0.7 fold; in assay [6] it was 0.2 fold.

B6: 9.1(9) (antibody, human IgG1, kappa)
heavy: B3 heavy with A327K
light: B1 light
notes: Fc variant of 9.1RF, expressed in 293 cells; also called 9.1RF 239D/268D/298A/332E
B6: the “ADCC … relative fold increase compared to 9.1RF” value in assay [16] worked out at 10 fold. For the same molecule, the binding result in assay [17] and in assay [18] was “binds” each time.

B7: 9.1-RF N434W (antibody, human IgG1, kappa)
heavy: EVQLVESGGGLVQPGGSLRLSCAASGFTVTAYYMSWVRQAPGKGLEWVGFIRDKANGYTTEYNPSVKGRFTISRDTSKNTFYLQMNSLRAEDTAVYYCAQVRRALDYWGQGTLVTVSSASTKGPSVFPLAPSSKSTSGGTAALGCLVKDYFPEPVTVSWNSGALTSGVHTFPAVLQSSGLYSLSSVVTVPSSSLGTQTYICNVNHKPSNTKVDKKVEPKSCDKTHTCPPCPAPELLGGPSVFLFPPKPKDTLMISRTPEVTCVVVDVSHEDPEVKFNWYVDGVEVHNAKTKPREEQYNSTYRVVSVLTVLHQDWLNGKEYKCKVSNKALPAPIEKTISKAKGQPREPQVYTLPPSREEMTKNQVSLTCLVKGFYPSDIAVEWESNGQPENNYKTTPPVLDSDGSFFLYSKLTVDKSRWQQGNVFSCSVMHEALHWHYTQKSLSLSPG
light: B1 light
notes: also called Hu9.1RF IgG1 with an N434W mutation; Control (agonistic positive control)
As for B7, the “binding relative to 9.1-RF” value in [7] is 1; in [10], 0.4; in assay [11], 0.64.

B8: 9.1(8) (antibody, human IgG1, kappa)
heavy: B3 heavy with D269H, A327K
light: B1 light
notes: Fc variant of 9.1RF, expressed in CHO; also called 9.1RF 239D/298A/332E
With B8, in assay [16], the “ADCC … relative fold increase compared to 9.1RF” value is 12 fold. Further, the “fold improvement in binding vs Herceptin” value came to 3.5 fold in assay [1]; 24 fold in [2]; 7.6 fold in assay [3]; 4 fold in assay [4]; 0.7 fold in assay [5]; 0.9 fold in assay [6].

The record behind these values is US20100166741A1 (Genentech, published 2010).
